Measurements as given in patent publication US20140212436A1 (Xencor, published 2014).

T1: recombinant human FcγRIIb protein (human, UniProt P31994 46-217)
T1 construct: Bought; injected as analyte in Biacore; also called CD32b
T1 sequence (looked up): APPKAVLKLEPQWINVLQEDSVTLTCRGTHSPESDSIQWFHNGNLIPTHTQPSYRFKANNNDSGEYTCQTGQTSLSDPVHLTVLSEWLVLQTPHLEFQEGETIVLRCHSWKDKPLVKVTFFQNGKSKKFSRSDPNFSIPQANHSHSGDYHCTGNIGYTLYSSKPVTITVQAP

B1: H1L1_MaE11 (novel humanized version of MaE11, anti-IgE antibody) (antibody)
heavy: not shown
light: DIQLTQSPSSLSASVGDRVTITCRASQSVDYDGDSYMNWYQQKPGQPPKLLIYAASYLGSEIPARFSGSGSGTDFTLTISSLQPEDFATYYCQQSHEDPYTFGAGTKLEIKRTVAAPSVFIFPPSDEQLKSGTASVVCLLNNFYPREAKVQWKVDNALQSGNSQESVTEQDSKDSTYSLSSTLTLSKADYEKHKVYACEVTHQGLSSPVTKSFNRGEC
notes: copies: 2 + 2
B2: MaE11_H1L1_IgG1_G236R/L328R (antibody)
heavy: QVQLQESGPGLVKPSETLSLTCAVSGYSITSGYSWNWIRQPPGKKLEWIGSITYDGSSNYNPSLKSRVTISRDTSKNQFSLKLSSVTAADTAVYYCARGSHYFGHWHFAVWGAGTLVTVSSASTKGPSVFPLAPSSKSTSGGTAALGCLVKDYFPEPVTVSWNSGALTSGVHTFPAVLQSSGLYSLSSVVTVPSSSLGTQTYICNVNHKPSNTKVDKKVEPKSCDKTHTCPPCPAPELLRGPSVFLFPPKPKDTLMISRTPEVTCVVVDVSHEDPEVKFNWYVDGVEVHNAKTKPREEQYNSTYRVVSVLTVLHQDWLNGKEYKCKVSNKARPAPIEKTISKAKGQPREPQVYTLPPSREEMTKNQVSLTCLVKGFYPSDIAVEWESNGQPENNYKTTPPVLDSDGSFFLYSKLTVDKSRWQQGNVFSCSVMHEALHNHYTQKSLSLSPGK
light: B1 light
notes: anti-IgE; also called H1L1 MaE11 Fc-KO
B3: MaE11_H1L1_IgG1_S267E/L328F (antibody)
heavy: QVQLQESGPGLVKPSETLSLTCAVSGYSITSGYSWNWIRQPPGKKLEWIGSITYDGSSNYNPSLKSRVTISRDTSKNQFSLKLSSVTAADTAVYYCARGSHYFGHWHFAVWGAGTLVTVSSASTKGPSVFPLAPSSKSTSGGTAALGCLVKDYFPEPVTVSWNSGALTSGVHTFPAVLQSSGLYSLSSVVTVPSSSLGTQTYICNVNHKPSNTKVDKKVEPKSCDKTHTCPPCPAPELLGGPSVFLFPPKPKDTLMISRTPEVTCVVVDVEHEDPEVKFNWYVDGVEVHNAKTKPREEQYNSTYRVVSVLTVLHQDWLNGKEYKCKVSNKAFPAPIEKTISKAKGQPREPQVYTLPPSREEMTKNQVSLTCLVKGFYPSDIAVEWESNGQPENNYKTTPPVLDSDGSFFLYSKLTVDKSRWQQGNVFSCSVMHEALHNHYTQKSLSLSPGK
light: B1 light
notes: anti-IgE

Columns and labels:
[1] = molecular target: T1, recombinant human FcγRIIb protein; assay: Biacore
Description: (§1) Variants were tested for receptor affinity using Biacore technology, also referred to as Biacore herein, a surface plasmon resonance (SPR) based technology for studying biomolecular interactions in real time. SPR measurements were performed using a Biacore 3000 instrument (Biacore, Piscataway, N.J.). A […] (Pierce Biotechnology) CM5 biosensor chip (Biacore) was generated using a standard primary amine coupling protocol. All measurements were performed using HBS-EP buffer (10 mM HEPES pH 7.4, 0.15 M NaCl, 3 mM EDTA, 0.005% vol/vol surfactant P20, Biacore). Antibodies at 20 nM or 50 nM in HBS-EP buffer were immobilized on the protein A/G surface and FcγRs were injected. After each cycle, the surface was regenerated by injecting glycine buffer (10 mM, pH 1.5). Data were processed by zeroing time and response before the injection of FcγR and by subtracting appropriate nonspecific signals (response of reference channel and injection of running buffer). Kinetic analyses were performed by global fitting of binding data with a 1:1 Langmuir binding model using BIAevaluation software (Biacore).
DNA encoding the Fc region of IgE, which contains the binding site for the anti-IgE antibodies used, was synthesized (Blue Heron Biotechnologies) and subcloned into the pTT5 vector. […]

[2] = molecular target: T1, recombinant human FcγRIIb protein; assay: Biacore, antibody captured on protein A
Description: as §1
(§2) DNA encoding the Fc region of IgE, which contains the binding site for the anti-IgE antibodies used, was synthesized (Blue Heron Biotechnologies) and subcloned into the pTT5 vector. […] SPR measurements were performed using the protein A/antibody capture method described above, except that analyte was either FcγRIIb or the Fc region of IgE. Data acquisition and fitting are as described above.

Fc region of IgE = molecular target: T2, Fc region of IgE (UniProt P01854-1 105-428, limits assumed); assay: Biacore, antibody captured on protein A, IgE Fc as analyte
T2 construct: domain: Fc region of IgE; also called IgE Fc
Description: as §1, §2

T2 sequence (P01854 other isoform, or with tags, fused parts or gaps limits assumed): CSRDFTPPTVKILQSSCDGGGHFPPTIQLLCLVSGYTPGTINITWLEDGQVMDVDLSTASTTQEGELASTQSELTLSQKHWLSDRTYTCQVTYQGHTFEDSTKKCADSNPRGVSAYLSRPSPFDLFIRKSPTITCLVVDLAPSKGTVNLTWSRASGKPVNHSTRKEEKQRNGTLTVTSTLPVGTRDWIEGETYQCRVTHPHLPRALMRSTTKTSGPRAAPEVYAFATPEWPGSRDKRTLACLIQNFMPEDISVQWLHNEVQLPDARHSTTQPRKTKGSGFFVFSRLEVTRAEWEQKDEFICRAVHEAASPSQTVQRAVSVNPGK

Row | Binder | Fold [1] | Kd [2] | Kd (Fc region of IgE) | binding result [2]
1 | B1 | 1 | 2000 nM | 0.061 nM | –
2 | B2 | – | – | 0.064 nM | no binding
3 | B3 | 366 | 5.6 nM | 0.063 nM | –
